Measured values: PMC3136621 (Analytical chemistry, 2011)
Each block holds one molecule with its values, some of them ahead of it.

Legend:
[1] = target: yeast alcohol dehydrogenase (ADH) from Saccharomyces cerevisiae (Saccharomyces cerevisiae) (UniProt P00330); assay: native MS
native MS = target: the molecule itself; assay: native MS

stoichiometry N [1]: 4
Molecule: yeast alcohol dehydrogenase (ADH) from Saccharomyces cerevisiae (from UniProt P00330 1-348) (enzyme)

B1: Fenna-Matthews-Olson (FMO) antenna protein from the green sulfur bacterium Chlorobaculum tepidum (natural protein, UniProt Q46393 1-366, looked up)
chain: MALFGSNDVTTAHSDYEIVLEGGSSSWGKVKARAKVNAPPASPLLPADCDVKLNVKPLDPAKGFVRISAVFESIVDSTKNKLTIEADIANETKERRISVGEGMVSVGDFSHTFSFEGSVVNLFYYRSDAVRRNVPNPIYMQGRQFHDILMKVPLDNNDLIDTWEGTVKAIGSTGAFNDWIRDFWFIGPAFTALNEGGQRISRIEVNGLNTESGPKGPVGVSRWRFSHGGSGMVDSISRWAELFPSDKLNRPAQVEAGFRSDSQGIEVKVDGEFPGVSVDAGGGLRRILNHPLIPLVHHGMVGKFNNFNVDAQLKVVLPKGYKIRYAAPQYRSQNLEEYRWSGGAYARWVEHVCKGGVGQFEILYAQ
stoichiometry N (native MS): 3
